Data: patent publication US20200317768A1 (published 2020)

T1: cynomolgus monkey FcγRIIb extracellular domain, C-terminal His-tag (cynomolgus monkey)
T1 construct: also called cyno FcγRIIb; cynoFcγRIIb; not shown: His-tag added to C-terminus
T1 chain: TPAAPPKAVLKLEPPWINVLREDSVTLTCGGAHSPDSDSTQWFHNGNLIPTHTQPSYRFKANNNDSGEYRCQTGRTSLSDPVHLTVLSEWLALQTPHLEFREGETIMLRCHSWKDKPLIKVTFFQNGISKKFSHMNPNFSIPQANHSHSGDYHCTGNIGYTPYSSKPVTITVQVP


Assays:
[1] = molecular target: T1, cynomolgus monkey FcγRIIb extracellular …; assay: SPR (Biacore), antibody captured, FcgR analyte, 25 C
[2] = molecular target: T2, cynomolgus monkey FcγRIIIaS extracellular domain, C-terminal His-tag (cynomolgus monkey, UniProt A3RFZ7 21-206 (rhesus entry)); assay: as above
T2 construct: also called cyno FcγRIIIaS; cynoFcγRIIIaS; not shown: His-tag added to C-terminus
T2 sequence (A3RFZ7 21-206): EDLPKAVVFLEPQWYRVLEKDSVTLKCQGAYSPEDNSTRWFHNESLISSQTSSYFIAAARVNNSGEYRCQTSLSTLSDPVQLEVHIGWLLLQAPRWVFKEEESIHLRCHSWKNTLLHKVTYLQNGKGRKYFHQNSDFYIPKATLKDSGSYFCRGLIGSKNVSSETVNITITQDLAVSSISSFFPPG

Row | Kd [1] [nM] | Kd [2] [nM] | Binder
1 | 1300 | 6200 | M103205H795-MY219/M103202L889-SK1 (antibody, human IgG1, kappa) heavy: QVTLKESGPVLVKPTETLTLTCTVSGIDLSHDDISWVRQAPGKGLEWVGIISYAGSTYYASWAKGRLTISKDTSKNQVVLTMTNMDPVDTATYYCARGVPAYSHGGDLWGQGTLVTVSSASTKGPSVFPLAPSSKSTSGGTAALGCLVKDYFPEPVTVSWNSGALTSGVHTFPAVLQSSGLYSLSSVVTVPSSSLGTQTYICNVNHKPSNTKVDKKVEPKSCDKTHTCPPCPAPELLGYPSVFLFPPKPKDTLMISRTPEVTCVVVDVSDEDPEVKFNWYVDGVEVHNAKTKPREEQYNSTYRVVSVLTVLHQDWLNGKEYKCKVSNKALPKPIEKTISKAKGQPREPQVYTLPPSREEMTKNQVSLTCLVKGFYPSDIAVEWESNGQPENNYKTTPPVLDSDGSFFLYSKLTVDKSRWQQGNVFSCSVMHEALHNHYTQKSLSLSP light: DIVMTQSPATLSLSPGERATLSCTSSQSVYHANWLSWFQQKPGQPPKLLIYWASTLAYGVPSRFSGSGSGTDFTLTISSLQPEDAATYYCAGGYGGGRYAFGQGTKVEIKRTVAAPSVFIFPPSDEQLKSGTASVVCLLNNFYPREAKVQWKVDNALQSGNSQESVTEQDSKDSTYSLSSTLTLSKADYEKHKVYACEVTHQGLSSPVTKSFNRGEC
2 | 470 | 4200 | M103205H795-MY229/M103202L889-SK1 (antibody, human IgG1, kappa) heavy: QVTLKESGPVLVKPTETLTLTCTVSGIDLSHDDISWVRQAPGKGLEWVGIISYAGSTYYASWAKGRLTISKDTSKNQVVLTMTNMDPVDTATYYCARGVPAYSHGGDLWGQGTLVTVSSASTKGPSVFPLAPSSKSTSGGTAALGCLVKDYFPEPVTVSWNSGALTSGVHTFPAVLQSSGLYSLSSVVTVPSSSLGTQTYICNVNHKPSNTKVDKKVEPKSCDKTHTCPPCPAPELLGYPSVFLFPPKPKDTLMISRTPEVTCVVVDVSDEDPEVKFNWYVDGVEVHNAKTKPREELYNSTYRVVSVLTVLHQDWLNGKEYKCKVSNKALPKPIEKTISKAKGQPREPQVYTLPPSREEMTKNQVSLTCLVKGFYPSDIAVEWESNGQPENNYKTTPKVLDSDGSFFLYSKLTVDKSRWQQGNVFSCSVMHEALHNHYTQKSLSLSP light: DIVMTQSPATLSLSPGERATLSCTSSQSVYHANWLSWFQQKPGQPPKLLIYWASTLAYGVPSRFSGSGSGTDFTLTISSLQPEDAATYYCAGGYGGGRYAFGQGTKVEIKRTVAAPSVFIFPPSDEQLKSGTASVVCLLNNFYPREAKVQWKVDNALQSGNSQESVTEQDSKDSTYSLSSTLTLSKADYEKHKVYACEVTHQGLSSPVTKSFNRGEC
3 | 1100 | 9700 | M103205H795-MY228/M103202L889-SK1 (antibody, human IgG1, kappa) heavy: QVTLKESGPVLVKPTETLTLTCTVSGIDLSHDDISWVRQAPGKGLEWVGIISYAGSTYYASWAKGRLTISKDTSKNQVVLTMTNMDPVDTATYYCARGVPAYSHGGDLWGQGTLVTVSSASTKGPSVFPLAPSSKSTSGGTAALGCLVKDYFPEPVTVSWNSGALTSGVHTFPAVLQSSGLYSLSSVVTVPSSSLGTQTYICNVNHKPSNTKVDKKVEPKSCDKTHTCPPCPAPELLGYPSVFLFPPKPKDTLMISRTPEVTCVVVDVSDEDPEVKFNWYVDGVEVHNAKTKPREELYNSTYRVVSVLTVLHQDWLNGKEYKCKVSNKALPKPIEKTISKAKGQPREPQVYTLPPSREEMTKNQVSLTCLVKGFYPSDIAVEWESNGQPENNYKTTPPVLDSDGSFFLYSKLTVDKSRWQQGNVFSCSVMHEALHNHYTQKSLSLSP light: DIVMTQSPATLSLSPGERATLSCTSSQSVYHANWLSWFQQKPGQPPKLLIYWASTLAYGVPSRFSGSGSGTDFTLTISSLQPEDAATYYCAGGYGGGRYAFGQGTKVEIKRTVAAPSVFIFPPSDEQLKSGTASVVCLLNNFYPREAKVQWKVDNALQSGNSQESVTEQDSKDSTYSLSSTLTLSKADYEKHKVYACEVTHQGLSSPVTKSFNRGEC
4 | 510 | 3900 | M103205H795-MY227/M103202L889-SK1 (antibody, human IgG1, kappa) heavy: QVTLKESGPVLVKPTETLTLTCTVSGIDLSHDDISWVRQAPGKGLEWVGIISYAGSTYYASWAKGRLTISKDTSKNQVVLTMTNMDPVDTATYYCARGVPAYSHGGDLWGQGTLVTVSSASTKGPSVFPLAPSSKSTSGGTAALGCLVKDYFPEPVTVSWNSGALTSGVHTFPAVLQSSGLYSLSSVVTVPSSSLGTQTYICNVNHKPSNTKVDKKVEPKSCDKTHTCPPCPAPELLGYPSVFLFPPKPKDTLMISRTPEVTCVVVDVSDEDPEVKFNWYVDGVEVHNAKTKPREEQYNSTYRVVSVLTVLHQDWLNGKEYKCKVSNKALPKPIEKTISKAKGQPREPQVYTLPPSREEMTKNQVSLTCLVKGFYPSDIAVEWESNGQPENNYKTTPKVLDSDGSFFLYSKLTVDKSRWQQGNVFSCSVMHEALHNHYTQKSLSLSP light: DIVMTQSPATLSLSPGERATLSCTSSQSVYHANWLSWFQQKPGQPPKLLIYWASTLAYGVPSRFSGSGSGTDFTLTISSLQPEDAATYYCAGGYGGGRYAFGQGTKVEIKRTVAAPSVFIFPPSDEQLKSGTASVVCLLNNFYPREAKVQWKVDNALQSGNSQESVTEQDSKDSTYSLSSTLTLSKADYEKHKVYACEVTHQGLSSPVTKSFNRGEC

The next lines start with the binder.

Row | Binder | Kd [1] [nM] | Kd [2] [nM]
5 | M103205H795-MY142/M103202L889-SK1 (antibody, human IgG1, kappa) heavy: QVTLKESGPVLVKPTETLTLTCTVSGIDLSHDDISWVRQAPGKGLEWVGIISYAGSTYYASWAKGRLTISKDTSKNQVVLTMTNMDPVDTATYYCARGVPAYSHGGDLWGQGTLVTVSSASTKGPSVFPLAPSSKSTSGGTAALGCLVKDYFPEPVTVSWNSGALTSGVHTFPAVLQSSGLYSLSSVVTVPSSSLGTQTYICNVNHKPSNTKVDKKVEPKSCDKTHTCPPCPAPELLEGPSVFLFPPKPKDTLMISRTPEVTCVVVDVSEEDPEVKFNWYVDGVEVHNAKTKPREEQYNSTYRVVSVLTVLHQDWLNGKEYKCKVSNKALPAPIEKTISKAKGQPREPQVYTLPPSREEMTKNQVSLTCLVKGFYPSDIAVEWESNGQPENNYKTTPMVLDSDGSFFLYSKLTVDKSRWQQGNVFSCSVMHEALHNHYTQKSLSLSP light: DIVMTQSPATLSLSPGERATLSCTSSQSVYHANWLSWFQQKPGQPPKLLIYWASTLAYGVPSRFSGSGSGTDFTLTISSLQPEDAATYYCAGGYGGGRYAFGQGTKVEIKRTVAAPSVFIFPPSDEQLKSGTASVVCLLNNFYPREAKVQWKVDNALQSGNSQESVTEQDSKDSTYSLSSTLTLSKADYEKHKVYACEVTHQGLSSPVTKSFNRGEC | 1800 | 140
6 | M103205H795-MY143/M103202L889-SK1 (antibody, human IgG1, kappa) heavy: QVTLKESGPVLVKPTETLTLTCTVSGIDLSHDDISWVRQAPGKGLEWVGIISYAGSTYYASWAKGRLTISKDTSKNQVVLTMTNMDPVDTATYYCARGVPAYSHGGDLWGQGTLVTVSSASTKGPSVFPLAPSSKSTSGGTAALGCLVKDYFPEPVTVSWNSGALTSGVHTFPAVLQSSGLYSLSSVVTVPSSSLGTQTYICNVNHKPSNTKVDKKVEPKSCDKTHTCPPCPAPELLSGPSVFLFPPKPKDTLMISRTPEVTCVVVDVSEEDPEVKFNWYVDGVEVHNAKTKPREEQYNSTYRVVSVLTVLHQDWLNGKEYKCKVSNKALPAPIEKTISKAKGQPREPQVYTLPPSREEMTKNQVSLTCLVKGFYPSDIAVEWESNGQPENNYKTTPMVLDSDGSFFLYSKLTVDKSRWQQGNVFSCSVMHEALHNHYTQKSLSLSP light: DIVMTQSPATLSLSPGERATLSCTSSQSVYHANWLSWFQQKPGQPPKLLIYWASTLAYGVPSRFSGSGSGTDFTLTISSLQPEDAATYYCAGGYGGGRYAFGQGTKVEIKRTVAAPSVFIFPPSDEQLKSGTASVVCLLNNFYPREAKVQWKVDNALQSGNSQESVTEQDSKDSTYSLSSTLTLSKADYEKHKVYACEVTHQGLSSPVTKSFNRGEC | 460 | 280
7 | M103205H795-MY213/M103202L889-SK1 (antibody, human IgG1, kappa) heavy: QVTLKESGPVLVKPTETLTLTCTVSGIDLSHDDISWVRQAPGKGLEWVGIISYAGSTYYASWAKGRLTISKDTSKNQVVLTMTNMDPVDTATYYCARGVPAYSHGGDLWGQGTLVTVSSASTKGPSVFPLAPSSKSTSGGTAALGCLVKDYFPEPVTVSWNSGALTSGVHTFPAVLQSSGLYSLSSVVTVPSSSLGTQTYICNVNHKPSNTKVDKKVEPKSCDKTHTCPPCPAPELLNGPSVFLFPPKPKDTLMISRTPEVTCVVVDVSDEDPEVKFNWYVDGVEVHNAKTKPREEQYNSTYRVVSVLTVLHQDWLNGKEYKCKVSNKALPKPIEKTISKAKGQPREPQVYTLPPSREEMTKNQVSLTCLVKGFYPSDIAVEWESNGQPENNYKTTPKVLDSDGSFFLYSKLTVDKSRWQQGNVFSCSVMHEALHNHYTQKSLSLSP light: DIVMTQSPATLSLSPGERATLSCTSSQSVYHANWLSWFQQKPGQPPKLLIYWASTLAYGVPSRFSGSGSGTDFTLTISSLQPEDAATYYCAGGYGGGRYAFGQGTKVEIKRTVAAPSVFIFPPSDEQLKSGTASVVCLLNNFYPREAKVQWKVDNALQSGNSQESVTEQDSKDSTYSLSSTLTLSKADYEKHKVYACEVTHQGLSSPVTKSFNRGEC | 160 | 1900
8 | M103205H795-MY209/M103202L889-SK1 (antibody, human IgG1, kappa) heavy: QVTLKESGPVLVKPTETLTLTCTVSGIDLSHDDISWVRQAPGKGLEWVGIISYAGSTYYASWAKGRLTISKDTSKNQVVLTMTNMDPVDTATYYCARGVPAYSHGGDLWGQGTLVTVSSASTKGPSVFPLAPSSKSTSGGTAALGCLVKDYFPEPVTVSWNSGALTSGVHTFPAVLQSSGLYSLSSVVTVPSSSLGTQTYICNVNHKPSNTKVDKKVEPKSCDKTHTCPPCPAPELLNGPSVFLFPPKPKDTLMISRTPEVTCVVVDVSDEDPEVKFNWYVDGVEVHNAKTKPREELYNSTYRVVSVLTVLHQDWLNGKEYKCKVSNTALPKPIEKTISKAKGQPREPQVYTLPPSREEMTKNQVSLTCLVKGFYPSDIAVEWESNGQPENNYKTTPPVLDSDGSFFLYSKLTVDKSRWQQGNVFSCSVMHEALHNHYTQKSLSLSP light: DIVMTQSPATLSLSPGERATLSCTSSQSVYHANWLSWFQQKPGQPPKLLIYWASTLAYGVPSRFSGSGSGTDFTLTISSLQPEDAATYYCAGGYGGGRYAFGQGTKVEIKRTVAAPSVFIFPPSDEQLKSGTASVVCLLNNFYPREAKVQWKVDNALQSGNSQESVTEQDSKDSTYSLSSTLTLSKADYEKHKVYACEVTHQGLSSPVTKSFNRGEC | 190 | 2200
